# Reference: patent US20190169635
# Tested on: alpha-1 antitrypsin (AAT) in the serum of wild-type C57BL/6 mice
substance,measurement,value
neutrophil elastase,relative neutrophil elastase activity (colorimetric kinetics of substrate degradation) after incubation with serum,"serum from wild-type male and female C57BL/6 mice exhibited a high capacity to inhibit neutrophil elastase, serum from the three founders showed a reduced capacity to do so"
